Assay results published in the supplement of paper PMC10126150.
± gives the standard deviation of the averaged measurements.

What follows are sequences tested on ATP (assay: switch fluorescence ratio, 500 uM ATP over buffer (Cy3 cluster intensity, sum of 5 cycles each) (fold (ratio)); higher = stronger signal-on switching upon ATP binding; sequences stand for … in TCGTCGGCAGCGTCAGATGTGTATAAGAGACAGTTTTTTTTTTTTTTTTTTTTTTTTT…TC). Conditions: aptamer strand: ATP DNA aptamer (quencher-CACCTGGGGGAGTATTGCGGAGGAAGG + anchor), 100 nM annealed; ATP concentration: 500 uM.
Outline: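 Cy3-labelled switching-strand clusters on a modified Illumina MiSeq flow-cell were annealed to 100 nM quencher-labelled ATP aptamer, imaged in selection buffer, then imaged after 15 min with 500 uM ATP at 22 °C. Five buffer/ATP cycles ran, with NaOH stripping and re-annealing between them. The fluorescence ratio is summed target-cycle over summed buffer-cycle Cy3 intensity per cluster, averaged per switch-domain sequence. Clusters outside 100-1000 RFU were excluded.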
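Further: ATP exposure 15 min at 22 °C before imaging.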

Row | Sequence | switch fluorescence ratio
1 | TCAATGGCTA | 1.02 ± 0.018
2 | TCAATGTTTG | 1.008 ± 0.0069
3 | TCAATTCAGG | 1.01 ± 0.016
4 | TCAATTTAGG | 0.966 ± 0.014
5 | TCACATTTTT | 0.99 ± 0.076
6 | TCACCCGTTT | 0.993 ± 0.016
7 | TCACGAATTT | 1 ± 0.014
8 | TCACGCAGGG | 1.03 ± 0.023
9 | TCACGCTTGA | 1.05 ± 0.052
10 | TCACGGACAG | 1.3 ± 0.057
11 | TCACGGGGGG | 1.08 ± 0.1
12 | TCACGGTAAT | 1.16 ± 0.097
13 | TCACGGTAGG | 0.999 ± 0.012
14 | TCACGGTGTG | 0.983 ± 0.02
15 | TCACGTTCTG | 1.03 ± 0.029
16 | TCACGTTGGA | 1.01 ± 0.019
17 | TCACGTTTTT | 1.01 ± 0.031
18 | TCACTAAAAA | 0.979 ± 0.12
19 | TCACTCATTT | 1.01 ± 0.019
20 | TCACTTAGAA | 1.04 ± 0.016
21 | TCACTTGAGC | 1.011 ± 0.0091
22 | TCAGAAATGT | 1.01 ± 0.021
23 | TCAGAAGGTG | 1.59 ± 0.079
24 | TCAGAATTTT | 1.04 ± 0.02
25 | TCAGACAGAT | 1.02 ± 0.035
26 | TCAGACTCAG | 0.992 ± 0.021

Row | Sequence | switch fluorescence ratio
27 | TCAGACTTTG | 0.978 ± 0.022
28 | TCAGAGAAGA | 0.962 ± 0.023
29 | TCAGAGGGCT | 0.991 ± 0.018
30 | TCAGAGGGTT | 1.01 ± 0.031
31 | TCAGAGGTTT | 0.973 ± 0.024
32 | TCAGATATAC | 1.581 ± 0.0082
33 | TCAGCAGGGG | 2.67 ± 1.9
34 | TCAGCATGGT | 1.04 ± 0.091
35 | TCAGCGGGAG | 1.012 ± 0.0016
36 | TCAGCGGGTT | 1.04 ± 0.12
37 | TCAGCTCTTC | 0.987 ± 0.042
38 | TCAGGAGGTG | 1.07 ± 0.019
39 | TCAGGCAGGC | 0.936 ± 0.052
40 | TCAGGCGGC | 0.992 ± 0.017
41 | TCAGGGACTT | 0.9845 ± 0.0077
42 | TCAGGGGATT | 1.02 ± 0.031
43 | TCAGGGGCAG | 1.06 ± 0.081
44 | TCAGGGGGAG | 1.02 ± 0.054
45 | TCAGGGGGCC | 1.02 ± 0.077
46 | TCAGGGGTAT | 1.03 ± 0.028
47 | TCAGGGGTGC | 1.09 ± 0.049
48 | TCAGGGTAGC | 1.02 ± 0.02
49 | TCAGGGTCCG | 0.961 ± 0.017
50 | TCAGTAATCT | 1.01 ± 0.058
51 | TCAGTACTTT | 0.998 ± 0.043
52 | TCAGTATGTT | 0.965 ± 0.019

Row | Sequence | switch fluorescence ratio
53 | TCAGTGACGG | 1.0248 ± 0.00071
54 | TCAGTGAGTA | 0.98 ± 0.019
55 | TCAGTTATCG | 0.985 ± 0.014
56 | TCAGTTGGAA | 0.977 ± 0.039
57 | TCAGTTTACT | 0.998 ± 0.025
58 | TCAGTTTTAC | 1.01 ± 0.052
59 | TCATAACTTT | 0.984 ± 0.017
60 | TCATAAGTGA | 0.9848 ± 0.0083
61 | TCATACCATA | 1.09 ± 0.03
62 | TCATACGTCT | 0.986 ± 0.09
63 | TCATAGGTCA | 0.972 ± 0.024
64 | TCATATACGA | 1.09 ± 0.015
65 | TCATATACGC | 1.1 ± 0.011
66 | TCATATATCT | 0.9937 ± 0.0058
67 | TCATATGGTT | 0.999 ± 0.019
68 | TCATATGTTG | 1.018 ± 0.0036
69 | TCATATTTAT | 0.996 ± 0.024
70 | TCATCAGGCC | 1.02 ± 0.012
71 | TCATCAGTGA | 0.998 ± 0.028
72 | TCATCCGGAT | 1.25 ± 0.049
73 | TCATCTAGTG | 1 ± 0.049
74 | TCATCTGTTG | 1 ± 0.033
75 | TCATGAACAC | 1.01 ± 0.05
76 | TCATGACGGT | 1.011 ± 0.0028
77 | TCATGAGCTT | 1.039 ± 0.0015
78 | TCATGATATG | 0.978 ± 0.027

Row | Sequence | switch fluorescence ratio
79 | TCATGCGGTG | 0.967 ± 0.01
80 | TCATGCGTAA | 2.03 ± 0.069
81 | TCATGGGGTA | 0.9617 ± 0.004
82 | TCATGGGGTG | 1.05 ± 0.07
83 | TCATGGTCTG | 1 ± 0.012
84 | TCATGTGAAA | 1.03 ± 0.021
85 | TCATGTTAAA | 0.98647 ± 0.0005
86 | TCATGTTTTT | 1.05 ± 0.14
87 | TCATTAATTG | 1.024 ± 0.0078
88 | TCATTAGAAA | 1 ± 0.013
89 | TCATTATGTG | 0.98 ± 0.023
90 | TCATTATTCT | 0.97 ± 0.012
91 | TCATTCGGGG | 0.973 ± 0.016
92 | TCATTCGTCG | 0.9712 ± 0.0031
93 | TCATTGCTTT | 1 ± 0.015
94 | TCATTGGTTA | 1.02 ± 0.042
95 | TCATTGTGAG | 1 ± 0.038
96 | TCATTGTTGG | 1 ± 0.023
97 | TCATTTGGTT | 0.988 ± 0.042
98 | TCATTTGTGC | 1.01 ± 0.039
99 | TCATTTTGGG | 0.999 ± 0.028
100 | TCCAAAAACG | 1.15 ± 0.21
101 | TCCAAACCAG | 1.06 ± 0.012
102 | TCCAAAGGGC | 1.07 ± 0.024
103 | TCCAAATTAC | 2.08 ± 0.064
104 | TCCAAGACGG | 1.02 ± 0.046

Row | Sequence | switch fluorescence ratio
105 | TCCAAGCTGG | 1.03 ± 0.025
106 | TCCAAGGTCC | 1.04 ± 0.042
107 | TCCAGAAGGC | 1.09 ± 0.13
108 | TCCAGAAGTT | 1.07 ± 0.057
109 | TCCAGACAGT | 0.984 ± 0.026
110 | TCCAGAGGGA | 1.28 ± 0.23
111 | TCCAGCTGTG | 0.9916 ± 0.0022
112 | TCCAGGACCA | 1.03 ± 0.042
113 | TCCAGGCGAA | 1.08 ± 0.038
114 | TCCAGGGCTT | 1.06 ± 0.013
115 | TCCAGGGGGC | 1.18 ± 0.16
116 | TCCATAAGGG | 1.01 ± 0.023
117 | TCCATGGGTG | 1.52 ± 0.033
118 | TCCATGTTTT | 1.14 ± 0.22
119 | TCCATTGAAC | 1.017 ± 0.0026
120 | TCCATTTTGG | 0.998 ± 0.039
121 | TCCCACTGCT | 1.03 ± 0.034
122 | TCCCATCTGT | 0.984 ± 0.031
123 | TCCCCGACGT | 1.53 ± 0.22
124 | TCCCCGCGCT | 1.25 ± 0.37
125 | TCCCGAAGAT | 1.03 ± 0.023
126 | TCCCGCGGCT | 1.08 ± 0.045
127 | TCCCGCTGGG | 1.17 ± 0.22
128 | TCCCGGTCCG | 1 ± 0.027
129 | TCCCTCCCCT | 1.25 ± 0.056
130 | TCCCTGGTAT | 1.04 ± 0.014

Row | Sequence | switch fluorescence ratio
131 | TCCCTGTTGC | 1.09 ± 0.045
132 | TCCCTTTGGC | 1.01 ± 0.04
133 | TCCGAAAAAG | 1.33 ± 0.44
134 | TCCGAAATCA | 1.6 ± 0.48
135 | TCCGAAGGAA | 1.11 ± 0.042
136 | TCCGAATGCG | 1.11 ± 0.0041
137 | TCCGACGTAG | 1.19 ± 0.31
138 | TCCGAGGCCA | 3.91 ± 3.2
139 | TCCGAGGCGG | 2.131 ± 0.017
140 | TCCGAGGGCT | 1.59 ± 0.084
141 | TCCGAGTGAG | 1.13 ± 0.058
142 | TCCGATTGAA | 1.08 ± 0.011
143 | TCCGCAGAG | 6.2 ± 0.49
144 | TCCGCTTGTA | 1.39 ± 0.11
145 | TCCGCTTTTT | 1.1 ± 0.15
146 | TCCGGAGGGA | 1.04 ± 0.089
147 | TCCGGCGGTG | 1.03 ± 0.027
148 | TCCGGCTTTG | 0.953 ± 0.075
149 | TCCGGGAAAT | 2.88 ± 0.66
150 | TCCGGGAGGG | 1.02 ± 0.053
151 | TCCGGGATCC | 1.25 ± 0.04
152 | TCCGGGCCTT | 1.02 ± 0.09
153 | TCCGGGGGCA | 1.59 ± 0.027
